Results from patent US20210309718A1 (THERACHON, published 2021).
One block for each binder: values may come before it.

B3: sFGFR3_Del4-D3 (receptor)
chain: ESLGTEQRVVGRAAEVPGPEPGQQEQLVFGSGDAVELSCPPPGGGPMGPTVWVKDGTGLVPSERVLVGPQRLQVLNASHEDSGAYSCRQRLTQRVLCHFSVRVTDAPSSGDDEDGEDEAEDTGVDTGAPYWTRPERMDKKLLAVPAANTVRFRCPAAGNPTPSISWLKNGREFRGEHRIGGIKLRHQQWSLVMESVVPSDRGNYTCVVENKFGSIRQTYTLDVLERSPHRPILQAGLPANQTAVLGSDVEFHCKVYSDAQPHIQWLKHVEVNGSKVGPDGTPYVTVLKTAGANTTDKELEVLSLHNVTFEDAGEYTCLAGNSIGFSHHSAWLVVLPVSLESNASMSSNT
notes: Secreted form without signal peptide; also called sFGFR3_Del4 with extended Ig-like C2-type domain 3

Assays:
[1] = target: B3; assay: SPR (Biacore T200), immobilised sFGFR3_Del4-D3, FGF as analyte, 1:1 model, ka1
[2] = target: B3; assay: SPR (Biacore T200), immobilised sFGFR3_Del4-D3, kinetic fit, 1:1 model
[3] = target: B3; assay: SPR (Biacore T200), immobilised sFGFR3_Del4-D3, steady state
[4] = target: B3; assay: SPR (Biacore T200), immobilised sFGFR3_Del4-D3, kinetic fit, 2:1 model
[5] = target: B3; assay: SPR (Biacore T200), immobilised sFGFR3_Del4-D3, FGF as analyte, 2:1 (conformational change) model, kd2
[6] = target: B3; assay: SPR (Biacore T200), immobilised sFGFR3_Del4-D3, FGF as analyte, 2:1 (conformational change) model, ka1
[7] = target: B3; assay: SPR (Biacore T200), immobilised sFGFR3_Del4-D3, FGF as analyte, 2:1 (conformational change) model, kd1
[8] = target: T1, human FGF9 (human, UniProt P31371 4-208); assay: SPR (Biacore T200), immobilised sFGFR3_Del4-D3, kinetic fit, 2:1 model
[9] = target: T1, human FGF9; assay: SPR (Biacore T200), immobilised sFGFR3_Del4-D3, FGF as analyte, 2:1 (conformational change) model, ka1
[10] = target: T1, human FGF9; assay: SPR (Biacore T200), immobilised sFGFR3_Del4-D3, steady state
[11] = target: T1, human FGF9; assay: SPR (Biacore T200), immobilised sFGFR3_Del4-D3, FGF as analyte, 2:1 (conformational change) model, kd1

kon [1]: 200000 M⁻¹ s⁻¹
Kd [2]: 4.5 nM
Kd [3]: 6.4 nM
B1: human FGF18 (ligand)
chain: EENVDFRIHVENQTRARDDVSRKQLRLYQLYSRTSGKHIQVLGRRISARGEDGDKYAQLLVETDTFGSQVRIKGKETEFYLCMNRKGKLVGKPDGTSKECVFIEKVLENNYTALMSAKYSGWYVGFTKKGRPRKGPKTRENQQDVHFMKRYPKGQPELQKPFKYTTVTKRSRRIRPTHPA
notes: also called hFGF18; fibroblast growth factor 18

Kd [4]: 28000 nM
kd2 [5]: 0.0014 s⁻¹
kon [6]: 258 M⁻¹ s⁻¹
koff [7]: 0.0055 s⁻¹
B2: human FGF21 (ligand)
chain: HPIPDSSPLLQFGGQVRQRYLYTDDAQQTEAHLEIREDGTVGGAADQSPESLLQLKALKPGVIQILGVKTSRFLCQRPDGALYGSLHFDPEACSFRELLLEDGYNVYQSEAHGLPLHLPGNKSPHRDPAPRGPARFLPLPGLPPALPEPPGILAPQPPDVGSSDPLSMVGPSQGRSPSYAS
notes: also called hFGF21; fibroblast growth factor 21

Binder: B3
Kd [8]: 1.8 nM
kon [9]: 2.3e+06 M⁻¹ s⁻¹
Kd [10]: 3.6 nM
koff [11]: 0.026 s⁻¹
